Test results: the DeepSol protein solubility set

Test: soluble on expression in E. coli; label from the status in PepcDB or PDB records

Row | Sequence | soluble on expression in E. coli
1 | MGSDKIHHHHHHMKKILYLHAGAELYGADKVLLELIKGLDKNEFEAHVILPNDGVLVPALREVGAQVEVINYPILRRKYFNPKGIFDYFISYHHYSKQIAQYAIENKVDIIHNNTTAVLEGIYLKRKLKLPLLWHVHEIIVKPKFISDSINFLMGRFADKIVTVSQAVANHIKQSPHIKDDQISVIYNGVDNKVYYQSDARSVRERFDIDEEALVIGMVGRVNAWKGQGDFLEAVAPILEQNPKAIAFIAGSAFEGEEWRVVELEKKISQLKVSSQVRRIDYYANTTELYNMFDIFVLPSTNPDPLPTVVLEAMACGKPVVGYRHGGVCEMVKEGVNGFLVTPNSPLNLSKVILQLSENINLRKKIGNNSIERQKEHFSLKSYVKNFSKVYTSLKVY | not soluble
2 | MGSDKIHHHHHHMAMAHGRRRVFGSVEHRKIDMSFRPLFGSGRIRTAGEQPAQPTTASWPGSSVVFDRRRWTCREAELRWTAPHHVLVLTEEGATSQTSIRSDGKMVYEGRDRSGAITFVPAGVERLGAYRDVDLTYSALWIDPRSISPASEHLKDLPVLINKSDTVISALLKSLSSEISNGHIPDSAYVDHLIALVTLRIRGFADEPVPAPRHDSLGSRVVKRVRDYVDAHLDGDISLGDLADVAGVASDSFARRFKVTTGFAPYAYVLEERIRRSEALLCETDTTLSAIALACGFSSQSHFTTTFKRLRGVTPQAYRSKVIPES | not soluble
3 | GPGSEHLTTVAAPFTCPIRRTVFAEGRRTIIFFRNIDATTAVFHQLRSAGFAVSLLHASLPYKVRKEMYADFASGRTNILCATDVAARGLDLHVDMVINFDVPTNALAYLSRSGRTARMGREGQVLNLYNKHQGVIVSAIKAFLKDNLPMEGLTNRKADMMQPRYAEWRTHKINALARSYVSLITR | not soluble
4 | MGSDKIHHHHHHMMLVQLRQVGVIRSPYKNFSKAPHQGRFSKETVEIEIFPEFEDGLKDIETCTHLIVLYWLDRANRDALLVVPPHDSREHGVFATRSPHRPNPIGFAVVELLERDGRVLKVKGLDALDGTPVVDIKPYSSTIDSVGNAKIGWFEEANPQSKLTRLLLRAKEFHGHICPFVALGVRMSVIAMEKLGVEEDAMASVGEDILAIVECNNCLTDGVQVATGCTLGNNSLIYLDLGKNALTIVRRKDWKGVRVYVNAENVRKYFSKEALELFNKVIVRREGSEEDAKRLSEFWEETGWKMLEIPEEEFKVEFVEVQPIERAPIFENKRCEKCGELAMATRVKDGLCLRCAGSYYAVVGRGIVKFDGEMREVV | not soluble
5 | MAHHHHHHMITMECITKKIKTIFQNSIQKCFPSISEDAIVTYANLKFGHYQCNNAINIYKKYGKELNYENAQKISEFIISNINETIFEEIKSSPQGFITVKLSKDYIETSLKKLFNGEKIDISININDIKESNENYGNVLVDFSSPNIAKEMHVGHLRSTIIGDSICRVFEFLKINTHRVNHVGDWGTQFGMIINYIKTHYPNFKEEMPDLSNLTSLYQESKKMYDADKEFEKSSKENAIKLQNNDEDCKFVWNKLCESSKKEFDKLYNILDIKLEYVGESFYVPMLSTVLDLLKESKLLTNIGDAICYQSENFKVPLFLQKSNGGYGYDSTDVAALYYRLTQLNCNCVIYVTDIGQLTHFETIFDLIKKTNWGDKNAKLMHVGFGFVLNEDNKKFKTRSGTTVKLINLIKEGTERAKRDLLQRIETKSEEEKSYFENVDIDQLSESLCVSAIKYFDLKQHRNSDYKFSYDNMLNVKGNTGIYIIYGYSRICSIFRKSTINVEDISKDELSLTSIYEINLGLHILKFPDIFYYILKNMLVHKLAEYMYDLTTTFTAFYENCKVLNNENEKSRLLLCSITKSLLKLCMELLGMKPIEKL | soluble
6 | MKSTGETLNIEEKVFAIADQFDHQGKIVQIKPFGNGNINDTFLVDLDGQTQTSFILQRINHQVFKNPAAVMGNMVRVTTHIKQKLQRQPLERPWLMPEVILTKNNQDHWDSGTGEFWRAISFIAGSESFDILTDPAQAKEVGTALGIFHQLLSDLSPSQLVDTLPGFHHTPIYLQQYQRALAQNPKLTGSLGPEINHCQRVIKTWLDQCGVLETAKAQGQLPLRLMHGDPKVNNILFDRQSGKAVSVIDLDTTKPGLIHYDLGDCLRSGCNLLGEETENWSAVEFDLDLCRAILEGYLPQCQHFLTAADYDYLCPAIVLISFELGLRFFTDYLNGDRYFKVKYPEHNLIRALVQFQLASHIQSQEDAIRRMIEDIRGLEHHHHHH | not soluble
7 | MSLSRSLSECIDQGRGLVPADLVLKHGRVFDLVTGELVQTDVAICGDRIVGTFGTYTGRREIDCRGRILVPGFIDTHLHVESSLVTPFEFDRCVTPRGITTAICDPHEIANVCGLEGIRYFLEASAHLVMDLRVQLSSCVPSTHMETAGAALEAKDLAPLMDHPRVIGLAEFMNFPGVLMKDPGCMAKLEAFRGRHIDGHAPLLRGKDLNGYIAAGIRTEHEATTAEEALEKLRKGMRVLIREGSVSKDLHALVSILTERHAPYLCLCTDDRNPLDIAEHGHIDHMIRTAIRLGAPPLAVYRAASLSAADAFGLKDRGLIAPGRRADIAVLDSLEGCHAALVLAGGVVADDAAFSARSDIEPVARASVKVAEIAPEAFRCPGNRADTPVIGILPGKIITEHLTAEIEPVDGDKRPDPVRDLARIAVIERHGKTGGRATGFVRGFGMARGAIASTVCHDHHNLAVVGIDYADMALAANRLRALEGGFAVAAGGEILAELALPVGGLMSLRPFEEVRDALVTLREAARSLGVTLEEPFLQLAFLALPVIPHLKITDRGMVDVDRFEILEGHHHHHH | soluble
8 | SWYIEEDLEKVNSNYFEEKDYELCRNELETTILDSVMKRVKGLEKVGIIYSGGVDSTLISKLASEYCEVILYSVGSENSEDLIYAERAAKDMGLDFRKKIISEDEFEEYVVKVAKAIDELDVMKLSVGIPILAASEMAKEDGIKVLLSGQGADELFAGYNRYQRILNEKGEDGLKESIISDVFDIHKINLERDDHCTMANGVELRVPFLDKFVIDVGLSIPVEYKIEEPRKKILRDIASKYVPDYIAQRPKKAAQYGSGSEKM | not soluble
9 | MGSDKIHHHHHHMKLSYVTDSLGHLPFEDMLNFAAKLGIDTLEMTTGGWSPAPHLNLDELLQSSEKRKEFSQALEKRNMTLCALNCSGNPLDPGELGKSHRDITDKTMELAGLLGVKKVIMMSGLPAGGPDDKVPNWITYTVSWPPVLKDILNYQWEDVAIPYWKKLVKKAEACGVGKIALENFSSQLVYNPETLFRLRNAVGPMVGLNLDPSHLLWMGADPIIAARELGSAIHHVHGKDVRIERYLSAVNGLLETKEVTDPANRAWNYVAVGCGQDLQWWKEFFSVVKMMGYEGEVSLEMEDLTMSPEAGIRTSVEALKQTISQ | not soluble
10 | MLTLSPPPAYLVTAANPAPSVAAAAPRALVFGGSGQIGERLLTRLLGRGWQVTAWSRAPRAARAGLIWRQGDLAAPAVAGESFEVIFSCGPLDHFAHWYETNAVSTPRIVAFGSTSVEVKEHSIDAAERDVAQRLANAEQALFSAAKARGAAATVLRPTLVYGAGRDRTLTQIAGLARRTGAFVLPANATGLRQPVHVDDLASAALAVVTQPATHQRSYAVGGGEVLAYTQMVERVLEALPRPARLYQVPPSLFGLALTTAQRLGRLRSLNTAALQRMRDDLVFDLEPARRDFGYAPRAFRPLPEELGIGELEHHHHHH | not soluble
11 | MGSDKIHHHHHHMPAYKVLQKGKTGDLLNVKHLYIKDIQSGEKVQDSFLVTEKNVAYSQKGAPYLNLRLKDKTGQVDGKIWDNALEWDKRFRKGDVVQVNARAVSFRNSLQLSILSLNTLDDSEVILNDYVPTTRMNVEVMFSELQSIIDRIDTPPLKKLLKSFFDDREIAERFKRAPAAKGFHHIYLGGLLEHTHSVTRLLSQIASHYPGVNRDLLLTGGILHDIGKINEFSYDRLVEYSDEGRLIGHIIIGVEMIDEKITAIPDFPAYLAMELRHLILSHHGILEYGSPKRPKTLEALMVHYVDDLDAKVNAFQEYLNDFRDEDTGWTPFHRFLERYLYRGRVQEITAEEPISPKEF | not soluble
12 | MEDERIKLLFKEKALEILMTIYYESLGGNDVYIQYIASKVNSPHSYVWLIIKKFEEAKMVECELEGRTKIIRLTDKGQKIAQQIKSIIDIMENDT | soluble
13 | MGSDKIHHHHHHMKSPCILLIIVCTLSLTGCASTKQADSDSSLGKAQQTLDSLYQHYSAKDSYLLRENYPFNEQYKVTYLASENQTNMPNQFSYLWPYSGTFSAVNSLLEATHDKKYQQLLEKQVLPGLEEYFDTERTPIAYSSYIRTAPTSDRFYDDNIWVGIDFIDIYQITKEKKYLDKAQLIWNFIESGTDSLLGDGIYWCEQKKESKNTCSNAPGSVFALKLFKATNDSLYFKRGKELYKWTQKNLQDSTDYLYFDNIRLDGKIGKAKFAYNSGQMMQSAALLYQLTKNPDYLKDAQSIAKECYNYFFTDFTTDTGESLKMLKQGNIWFTAVMLRGFIELYQLDQNKTFIDAFNQCLSYAWDNARDENGLFSTDLTGNNNNEKKWLLTQAAMVEMYSRLATIQ | not soluble
14 | MSWWCCIPKSKKGENPYSHGVSGIPPEKNIRLFSYSELRSATENFNRSNKIGRGGFGTVYKGTIRNGRDVAVKVLSAESRQGVREFLTEIDVITNVKHPNLVELIGCCVEGNNRILVYEYLENSSLDRALLGSNSEPANFTWSIRSAICIGIAKGLAYLHEEIASPIVHRDIKASNILLDKLYNPKIGDFGLAKLFPDNITHISTRVAGTTGYLAPEYAWHGQLTKRADIYSFGVLVLEIVSGKSSSRSLLADDKILLEKAWELHEVGKLKELVDSEMGDYPEEEVLRYIKTALFCTQAAAARRPSMPQVVTMLSKPIRINERELTAPGYIHDYNGTVSKATNSSNSRFKHSASDTSDMFSTVVPPTVSEISPR | not soluble
15 | MKIGIFTDCYYPQINGVVTSTMNLQKELEKLNHEVYIITTTFPNFKDEDEKHIIRIPSIPFFKWSEFRIGLFLKHTKAYNKVKALNFDIVHTQTEFSMGNFGTFIAKDLNIPCIHTYHTVYEEYTHYISNFGKSPLKKVVRKLSKRYIAHFSGVIAPTEKTRDLLISYGVKNKIYVVPTGINLEKFKKDIPDAETNSLLKSFNIKKDSFKLIFLGRISKEKNIETLINIMPKIVSENNNIQLIIVGDGPDRLELEERVRYLDLQDNVIFTNRIPNDKVPIYYKAADLFISPSKTETQGLTILEAMAAGVPVLVYDDTNIKGLVLHKKTGLLFKENDELLDNIKFALNNKEEIQSYAKEAFKIAEDFSSANFAKKVERIYKELINQ | not soluble
16 | GAKQLSTARKFKMITGKDLFQQQKAMDTELKKEDGEITDLMEFVQYGLYLALFQDNIVKAKSDFSDFRSSFEFDTDGKGLKELVELWQKEI | soluble
17 | MIIRIKHYGEVKIEDSKNLLLNLIENRIGIDNICNGKGTCGKCKVRFRQGVPEATSADLRYLSVEELEEGVRLACQVKPQKGMEIDVTLSNSFDRKNTVLEHHHHHH | not soluble
18 | MAHHHHHHMRPHTPAKVATTASDGATTTKTTSHPVLLGCGLNWASFVASHPFEVKELTSVLVGDGSDDDGVPEERDALVQAQLPVASVVTSGATLERVFTEAMVCASARAEVARKVQHIATVWCLHPSSEYVATLCWPMEGGESASTTTAVLKVQTEGGRAPLDLRAVSLHVVDRGSLVFHPEFTRCILAQGAERFMYYVPPNPLEATTALPFMRGLWYNGLFSLLELLRIGPQHVVMLFVLPNGDTRYTLDLAPESPAVPAPSSTHQQGSGALGSAASRNATASLYPWRRQSKVRRVIRSGAYVVVVRDDTAGVVESLQRACSYHGQNKRSTWLNDIFIHLMGQCSRRDILCSADAAASQPAEADKANDVRLLCIELVEKATGEVMAGCCGMAVGCAYHDYTMYTLRQTKDGLGTFLTKLIGEALQRCGYTLWYWGFCVEYMRHFERHFGAVDMPRDVFYRRWSAARDAAPECSIDAYLRSHKGMVPYYEGTSALVKSKP | not soluble
19 | GSHMAGLPRRIIKETQRLLAEPVPGIKAEPDESNARYFHVVIAGPQDSPFEGGTFKLELFLPEEYPMAAPKVRFMTKIYHPNVDKLGRICLDILKDKWSPALQIRTVLLSIQALLSAPNPDDPLANDVAEQWKTNEAQAIETARAWTRLYAMNNI | soluble
